Measured values reported in patent US20250092134A1.

Key:
[1] = biological target: TCR Vβ17 on T cells of PBMCs; experiment: flow cytometry on PBMCs, percent of cells stained
[2] = biological target: Vβ17 (on cells expressing Vβ17); experiment: cell-based or functional assay
Sequence of Vβ17 (on cells expressing Vβ17) (A0A075B6N1 22-114): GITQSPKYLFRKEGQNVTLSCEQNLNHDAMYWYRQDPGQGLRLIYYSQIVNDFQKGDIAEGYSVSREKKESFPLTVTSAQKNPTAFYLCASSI

Sequence of TCR Vβ17 on T cells of PBMCs (A0A075B6N1 22-114): as above

Row | PBMC binding (%) [1] [%] | Cell Internalization (EC50) [2] [nM] | Substance
1 | 0.13 | – | Goat anti mouse IgG PE, Southern Biotech, Cat: 1030-09 (antibody)
2 | 3.4 | < 0.07 | Anti TCR Vβ17-PE Ab, Beckman Coulter, Cat: IM2048 (antibody)
